What was measured:
[1] = molecular target: T1, apoE- and lipoprotein lipase-independent TGRLP receptor (apoB48R) on the surface of THP-1 monocyte-macrophages (human) (UniProt Q0VD83); experiment: specific binding of the 125I-lipoprotein to THP-1 macrophages, 4 °C
T1 sequence: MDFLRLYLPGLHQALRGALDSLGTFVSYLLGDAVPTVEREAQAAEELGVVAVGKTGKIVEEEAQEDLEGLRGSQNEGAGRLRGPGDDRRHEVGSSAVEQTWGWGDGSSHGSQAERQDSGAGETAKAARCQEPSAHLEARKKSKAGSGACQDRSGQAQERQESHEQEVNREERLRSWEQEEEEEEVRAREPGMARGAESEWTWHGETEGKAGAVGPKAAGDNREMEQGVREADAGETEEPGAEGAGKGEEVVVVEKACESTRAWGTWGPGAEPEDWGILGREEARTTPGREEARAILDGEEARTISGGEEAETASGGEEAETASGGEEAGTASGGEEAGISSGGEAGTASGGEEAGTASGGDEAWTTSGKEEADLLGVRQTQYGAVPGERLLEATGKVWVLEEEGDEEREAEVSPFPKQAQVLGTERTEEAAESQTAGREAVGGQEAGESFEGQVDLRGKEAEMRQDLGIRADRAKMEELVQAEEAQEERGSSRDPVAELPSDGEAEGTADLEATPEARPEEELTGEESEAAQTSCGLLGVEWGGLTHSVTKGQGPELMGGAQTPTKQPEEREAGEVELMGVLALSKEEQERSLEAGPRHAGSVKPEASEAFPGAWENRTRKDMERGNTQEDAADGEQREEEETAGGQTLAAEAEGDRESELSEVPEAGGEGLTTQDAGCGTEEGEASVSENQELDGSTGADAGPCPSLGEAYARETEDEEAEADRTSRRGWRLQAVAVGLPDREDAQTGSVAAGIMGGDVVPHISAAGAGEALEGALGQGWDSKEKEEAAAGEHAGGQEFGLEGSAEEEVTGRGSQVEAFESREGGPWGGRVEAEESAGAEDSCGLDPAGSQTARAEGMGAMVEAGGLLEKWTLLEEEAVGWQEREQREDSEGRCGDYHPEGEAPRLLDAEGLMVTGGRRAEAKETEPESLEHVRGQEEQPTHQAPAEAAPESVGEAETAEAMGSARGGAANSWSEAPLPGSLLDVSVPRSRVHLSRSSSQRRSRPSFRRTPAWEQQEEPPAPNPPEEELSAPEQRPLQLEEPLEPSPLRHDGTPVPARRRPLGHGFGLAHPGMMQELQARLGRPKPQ

[2] = molecular target: MBP200 (membrane binding protein of ~200 kDa; human monocyte-macrophage apoB48 receptor, apoB48R) (human) (UniProt Q0VD83); experiment: quantitative ligand blot, Scatchard; settings: scale: ng apo very low density lipoprotein/mg cell protein
[3] = molecular target: MBP235 (membrane binding protein of ~235 kDa: MBP200 plus noncovalently bound subunit(s) of ~35 kDa) (human); experiment: quantitative ligand blot, Scatchard; settings: scale: ng apo very low density lipoprotein/mg cell protein
[4] = molecular target: MBP200R (reduced, ligand-binding form generated from MBP200 and MBP235 by 2-mercaptoethanol) (human) (UniProt Q0VD83); experiment: quantitative ligand blot after reduction, Scatchard; design: Bmax: unit not given here
[5] = molecular target: T1, apoE- and lipoprotein lipase-independent TGRLP receptor (apoB48R) on the surface of THP-1 monocyte-macrophages (human); experiment: binding of 125I-HTG-VLDL at 5 µg/ml to THP-1 macrophages, 4 °C
[6] = molecular target: LDL receptor of cultured human skin fibroblasts (upregulated) (human) (UniProt P01130); experiment: binding of 125I-HTG-VLDL at 5 µg/ml to fibroblasts with induced LDL receptor, 4 °C
[7] = molecular target: T1, apoE- and lipoprotein lipase-independent TGRLP receptor (apoB48R) on the surface of THP-1 monocyte-macrophages (human); experiment: competition with 125I-HTG-VLDL1 for THP-1 macrophages, 4 °C, lactoferrin 500 µg/ml
[8] = molecular target: T1, apoE- and lipoprotein lipase-independent TGRLP receptor (apoB48R) on the surface of THP-1 monocyte-macrophages (human); experiment: competition with 125I-tryp-VLDL1 for THP-1 macrophages, 4 °C, lactoferrin 100 µg/ml
[9] = molecular target: T1, apoE- and lipoprotein lipase-independent TGRLP receptor (apoB48R) on the surface of THP-1 monocyte-macrophages (human); experiment: competition with 125I-HTG-VLDL1 for THP-1 macrophages; set as 100% by definition
[10] = molecular target: T1, apoE- and lipoprotein lipase-independent TGRLP receptor (apoB48R) on the surface of THP-1 monocyte-macrophages (human); experiment: competition with 125I-tryp-VLDL1 for THP-1 macrophages; set as 100% by definition
[11] = molecular target: T1, apoE- and lipoprotein lipase-independent TGRLP receptor (apoB48R) on the surface of THP-1 monocyte-macrophages (human); experiment: competition with 125I-tryp-VLDL2 for THP-1 macrophages; set as 100% by definition
[12] = molecular target: hypertriglyceridemic very low density lipoprotein Sf100-400 (HTG-VLDL) (human) (UniProt P04114); experiment: competitive ligand blot: binding of biotinylated HTG-VLDL to MBP200 and MBP235, control IgG 400 µg/ml

Chain of lactoferrin (P02788 20-710): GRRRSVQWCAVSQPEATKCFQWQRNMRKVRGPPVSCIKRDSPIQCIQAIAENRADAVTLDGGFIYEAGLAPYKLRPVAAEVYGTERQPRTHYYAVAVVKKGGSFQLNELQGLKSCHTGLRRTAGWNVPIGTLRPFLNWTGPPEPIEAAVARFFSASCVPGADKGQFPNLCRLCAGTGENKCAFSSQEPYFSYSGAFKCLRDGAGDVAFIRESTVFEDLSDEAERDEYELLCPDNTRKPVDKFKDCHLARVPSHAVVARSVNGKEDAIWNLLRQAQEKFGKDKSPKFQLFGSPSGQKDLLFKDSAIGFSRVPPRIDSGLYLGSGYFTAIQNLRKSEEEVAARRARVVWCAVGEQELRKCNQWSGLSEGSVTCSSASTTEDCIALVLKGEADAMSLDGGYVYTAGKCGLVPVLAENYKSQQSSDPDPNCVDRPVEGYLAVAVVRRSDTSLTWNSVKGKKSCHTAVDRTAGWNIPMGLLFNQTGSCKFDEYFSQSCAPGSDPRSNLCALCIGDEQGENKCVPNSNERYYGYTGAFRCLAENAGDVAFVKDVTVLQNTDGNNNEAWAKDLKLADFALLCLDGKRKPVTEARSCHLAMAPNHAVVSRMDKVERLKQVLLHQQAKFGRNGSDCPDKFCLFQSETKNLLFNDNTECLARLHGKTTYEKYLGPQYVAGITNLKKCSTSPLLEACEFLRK
Chain of LDL receptor of cultured human skin fibroblasts (upregulated) (human) (P01130 22-860): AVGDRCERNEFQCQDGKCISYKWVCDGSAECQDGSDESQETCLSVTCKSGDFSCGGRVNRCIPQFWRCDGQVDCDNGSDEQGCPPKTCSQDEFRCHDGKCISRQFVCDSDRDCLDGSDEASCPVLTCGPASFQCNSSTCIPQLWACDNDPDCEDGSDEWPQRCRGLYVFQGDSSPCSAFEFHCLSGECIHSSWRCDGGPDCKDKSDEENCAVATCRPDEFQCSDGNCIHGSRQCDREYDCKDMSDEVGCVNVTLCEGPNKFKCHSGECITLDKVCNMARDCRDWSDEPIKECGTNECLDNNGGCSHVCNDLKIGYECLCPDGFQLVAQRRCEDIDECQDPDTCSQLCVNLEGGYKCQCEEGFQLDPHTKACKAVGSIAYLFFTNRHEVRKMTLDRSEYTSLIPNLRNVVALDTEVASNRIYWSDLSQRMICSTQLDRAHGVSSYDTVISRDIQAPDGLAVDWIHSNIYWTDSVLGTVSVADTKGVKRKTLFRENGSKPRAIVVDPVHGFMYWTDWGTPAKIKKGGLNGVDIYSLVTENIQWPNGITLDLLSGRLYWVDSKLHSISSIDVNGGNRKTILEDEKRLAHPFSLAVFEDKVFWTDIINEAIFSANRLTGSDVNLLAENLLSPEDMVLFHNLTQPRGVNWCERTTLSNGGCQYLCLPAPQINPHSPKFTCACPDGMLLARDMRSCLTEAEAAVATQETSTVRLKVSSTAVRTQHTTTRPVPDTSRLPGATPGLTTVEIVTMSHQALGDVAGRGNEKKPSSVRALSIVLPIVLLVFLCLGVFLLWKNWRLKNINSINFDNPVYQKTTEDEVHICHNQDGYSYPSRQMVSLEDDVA

Substance “trypsinized VLDL2 (tryp-VLDL2) (from UniProt P04114 28-4563)” has a specific binding (0% inhibition) (fmol/mg cell protein) [1] of 20.
In the case of “hypertriglyceridemic very low density lipoprotein Sf100-400 (HTG-VLDL) (from UniProt P04114 28-4563; P04114 28-2179; P02649 19-317; P02656 21-99)”, the Bmax [2] is reported as 96, the Bmax [3] is reported as 66 and the Bmax [4] is reported as 160. It also gave a Kd [4] of 1.4 µg/mL, a specific binding activity (ng/mg THP-1 cell protein) [5] of 24 and a specific binding activity (ng/mg fibroblast cell protein) [6] of 237.
Work on lactoferrin yielded a Percent Inhibition [7] of 5% and a Percent Inhibition [8] of 4%.
Work on “trypsinized VLDL Sf100-400, devoid of apoE (tryp-VLDL) (from UniProt P04114 28-4563)” yielded a specific binding (0% inhibition) (fmol/mg cell protein) [1] of 140.
In the case of Unlabeled VLDL (20x), P04114 28-4563, the Percent Inhibition [9] is reported as 100%, the Percent Inhibition [10] is reported as 100% and the Percent Inhibition [11] is reported as 100%.
For preimmune IgG (rabbit 1325) (antibody), the percent of binding blocked [12] was 25%.

From US20030208060A1
